From US20200123558A1 (UNIVERSITY OF SASKATCHEWAN AND NATIONAL RESEARCH COUNCIL OF …, published 2020)
Where two headings read alike, the source gives them in different places.

B1: peptide C2-4B (peptide)
peptide: RMPQWWQWMWV
modifications: Shown as the variable loop of the Trx scaffold on a Y2H prey vector. The letters do not carry this.
notes: also called 11-3; C2-4B aptamer; not shown: TrxA scaffold and Y2H fusion domain
B2: peptide 24-1 (peptide)
peptide: SKWTWRMCMSWTVDRFAPVPWP
modifications: Displayed in the assay as the variable loop of a TrxA scaffold fused to a Y2H prey domain; carrier not written.
notes: not shown: TrxA (thioredoxin) scaffold halves flanking the loop and the Y2H prey fusion domain
B3: peptide C43-4 (peptide)
peptide: NGSSHNDLRVRRLTLISRLC
modifications: Shown in the assay as the variable loop of a Trx scaffold fused to a Y2H prey domain. The letters do not carry this.
notes: also called C43-4 aptamer; Htz1-like peptide; not shown: Thioredoxin (TrxA) scaffold flanking the loop and the Y2H prey fusion domain
B4: peptide C43-4-3 (peptide, not shown: large carriers)
peptide: NGSSHNDARVRRLTLISRLC
modifications: Presumably shown in the Trx scaffold like its parent. The letters do not carry this.
notes: C43-4 with leucine 8 replaced by alanine; also called C43-L8A
B5: peptide 50-1 (peptide)
peptide: RRCLSIRTENLAWEGKFLRV
modifications: Displayed in the assay as the variable loop of a TrxA scaffold fused to a Y2H prey domain; carrier not written.
notes: as for B2
B6: peptide 1-8 (peptide)
peptide: GRMLMTYLMYFMVLWVPRPWGPPL
modifications: Displayed in the assay as the variable loop of a TrxA scaffold fused to a Y2H prey domain; carrier not written.
notes: as for B2

Legend:
Test in all cases: yeast 2-hybrid
Apc5 = target: T1, Apc5 (yeast, UniProt Q08683 1-685, limits assumed)
T1 construct: Expressed as a Y2H bait fusion; also called Apc5 bait
T1 sequence (looked up): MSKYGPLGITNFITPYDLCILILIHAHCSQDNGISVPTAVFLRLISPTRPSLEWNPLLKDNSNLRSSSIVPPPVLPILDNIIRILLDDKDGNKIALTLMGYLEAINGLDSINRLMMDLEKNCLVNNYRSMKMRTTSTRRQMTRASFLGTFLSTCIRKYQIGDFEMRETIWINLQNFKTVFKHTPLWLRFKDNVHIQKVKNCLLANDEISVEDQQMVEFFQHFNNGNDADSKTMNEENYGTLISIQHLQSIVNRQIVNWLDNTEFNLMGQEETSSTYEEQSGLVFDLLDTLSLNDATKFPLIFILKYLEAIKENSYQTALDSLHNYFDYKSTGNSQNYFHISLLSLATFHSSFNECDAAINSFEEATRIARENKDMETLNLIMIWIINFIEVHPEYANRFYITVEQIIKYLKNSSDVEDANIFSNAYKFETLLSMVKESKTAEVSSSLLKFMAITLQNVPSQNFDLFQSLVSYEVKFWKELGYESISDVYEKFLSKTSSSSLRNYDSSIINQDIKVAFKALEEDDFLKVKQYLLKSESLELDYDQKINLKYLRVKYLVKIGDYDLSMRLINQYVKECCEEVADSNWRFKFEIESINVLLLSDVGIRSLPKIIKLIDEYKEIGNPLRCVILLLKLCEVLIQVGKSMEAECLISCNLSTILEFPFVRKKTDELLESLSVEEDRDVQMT

Apc10 [1] = target: T2, Apc10 (yeast, UniProt P53068 1-250, limits assumed)
T2 construct: Expressed as a Y2H bait fusion; also called yeast Apc10 APC subunit; Apc10 bait
T2 sequence (looked up): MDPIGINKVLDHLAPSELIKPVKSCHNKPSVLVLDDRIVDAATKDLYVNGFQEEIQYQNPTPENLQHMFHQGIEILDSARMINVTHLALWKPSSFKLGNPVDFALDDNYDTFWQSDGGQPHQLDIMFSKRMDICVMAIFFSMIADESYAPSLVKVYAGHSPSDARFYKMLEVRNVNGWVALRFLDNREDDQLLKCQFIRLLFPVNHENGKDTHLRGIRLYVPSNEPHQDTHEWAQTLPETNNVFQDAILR

Apc10 [2] = target: T2, Apc10; remark: listed apart in the source

| Binder | binding result (Apc5) | binding result (Apc10 [1]) | further results |
| --- | --- | --- | --- |
| B1 | binds |  |  |
| B2 | binds |  |  |
| B3 |  | binds |  |
| B4 |  |  | binding result (Apc10 [2]): binds |
| B5 |  | binds |  |
| B6 |  | binds |  |
